T1: recombinant OX40 protein with a His tag (Homo sapiens, UniProt P43489)
T1 construct: His tag; purchased Sino Biological 10481-H08H
T1 sequence (P43489 29-277): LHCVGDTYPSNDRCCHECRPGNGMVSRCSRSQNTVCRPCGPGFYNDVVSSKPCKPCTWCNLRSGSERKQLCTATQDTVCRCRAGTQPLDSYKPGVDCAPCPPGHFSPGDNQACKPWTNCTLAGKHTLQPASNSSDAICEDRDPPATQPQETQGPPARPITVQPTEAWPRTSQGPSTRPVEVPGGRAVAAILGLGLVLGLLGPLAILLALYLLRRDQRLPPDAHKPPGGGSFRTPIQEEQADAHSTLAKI

T2: interaction between OX40 and OX40 ligand (Mus musculus, UniProt P47741)
T2 sequence (P47741 20-272): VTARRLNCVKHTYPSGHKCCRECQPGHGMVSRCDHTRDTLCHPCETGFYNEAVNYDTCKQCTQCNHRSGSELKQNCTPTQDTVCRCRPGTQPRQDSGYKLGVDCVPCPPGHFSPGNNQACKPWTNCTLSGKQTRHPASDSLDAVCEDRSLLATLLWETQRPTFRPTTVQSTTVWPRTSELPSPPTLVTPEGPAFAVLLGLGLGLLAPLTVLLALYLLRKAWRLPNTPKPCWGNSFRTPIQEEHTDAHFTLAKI
T2 sequence (P43488 1-198 partner): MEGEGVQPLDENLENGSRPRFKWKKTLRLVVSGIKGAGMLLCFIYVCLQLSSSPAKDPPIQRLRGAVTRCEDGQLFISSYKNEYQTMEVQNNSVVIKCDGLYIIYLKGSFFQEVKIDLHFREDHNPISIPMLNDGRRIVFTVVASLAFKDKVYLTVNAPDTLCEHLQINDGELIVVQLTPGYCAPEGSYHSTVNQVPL


What was measured:
[1] = target: T1, recombinant OX40 protein with a His tag; assay: Binding kinetics and affinity of anti-OX40 antibodies by SPR (BIAcore T-200)
Source text: The anti-OX40 antibodies were characterized for their binding kinetics and affinity by SPR assays using BIAcore™ T-200 (GE Life Sciences). Briefly, anti-human IgG antibody was immobilized on an activated CM5 biosensorchip (Cat: BR100530, GE Life Sciences). An antibody with human IgG Fc region was flowed over the chip surface and captured by anti-human IgG antibody. Then a serial dilution of recombinant OX40 protein with a His tag (Cat: 10481-H08H, Sino Biological) was flowed over the chip surface and changes in surface plasmon resonance signals were analyzed to calculate the association rates (ka) and dissociation rates (kd) by using the one-to-one Langmuir binding model (BIA Evaluation Software, GE Life Sciences). The equilibrium dissociation constant (KD) was calculated as the ratio kd/ka.

A20 cells = assay: A20 syngeneic B cell lymphoma model in BALB/c mice; assay type: in vivo, mouse; conditions: Compound 1 10 mg/kg p.o.
Experimental: A20 cells are of B cell lymphoma origin. Female BALB/c mice were subcutaneously implanted with 1×10^5 A20 cells in 150 μL PBS mice in the right flank. After inoculation, mice were randomized into 4 groups with 25 animals in each group according to inoculation order. The mice were treated with vehicle (0.5% MC), OX86 (a murine specific anti-OX40 antibody), Compound 1, and the combination of OX86 and Compound 1. OX86 was given at 0.4 mg/kg once a week by intraperitoneal injection, and Compound 1 was administered at 10 mg/kg twice a day by oral gavage. Tumor volume was determined twice weekly and the TGI calculated as described above.

[2] = target: T2, interaction between OX40 and OX40 ligand; conditions: reported in the scientific literature; cited from earlier work
EMT-6 cells = assay: EMT-6 syngeneic breast cancer model in BALB/c mice; assay type: in vivo, mouse
Experimental: EMT-6 cells are of murine breast cancer origin. Female BALB/c mice were implanted intramammary with 5×10^4 EMT-6 cells per 100 μL PBS mice in the second right papilla. After inoculation, mice were randomized into 4 groups with 25 animals in each group according to inoculation order.
The mice were treated with vehicle (0.5% MC), OX86 (a murine specific anti-OX40 antibody), Compound 1 (PI3Kdelta inhibitor), and the combination of OX86 and Compound 1, respectively. OX86 was given at 0.4 mg/kg once per week (QW) by intraperitoneal (i.p.) injection, and Compound 1 was administered at 30 mg/kg twice per day (BID) by oral gavage (p.o.). Tumor volume was determined twice weekly and tumor growth inhibition was determined using the formula described in Example 14 above.

[3] = OX86 0.4 mg/kg QW i.p., Compound 1 30 mg/kg BID p.o.

KA ([1]; Mean) | KA ([1]; Test 1) | ka ([1]; Test 1) | kd ([1]; Test 1) | KA ([1]; Test 2) | ka ([1]; Test 2) | kd ([1]; Test 2) | Molecule | Mean Tumor Volume on Day 26 (mean ± SEM) (A20 cells; OX86 0.4 mg/kg QW i.p.) | Tumor Free Animals at Day 47 (A20 cells; OX86 0.4 mg/kg QW i.p.) | TGI on Day 26 (A20 cells; OX86 0.4 mg/kg QW×4 i.p.) | Blocking of the interaction between OX40 and OX40 ligand [2] | Mean Tumor Volume on Day 22 (mean ± SEM) (EMT-6 cells; [3]) | Tumor Free Animal (EMT-6 cells; [3]) | TGI on Day 22 (EMT-6 cells; OX86 0.4 mg/kg QW×4 i.p., Compound 1 30 mg/kg BID×22 p.o.)
5.9e+07 M⁻¹ | 5.6e+07 M⁻¹ | 156000 M⁻¹ s⁻¹ | 0.00277 s⁻¹ | 6.1e+07 M⁻¹ | 237000 M⁻¹ s⁻¹ | 0.00389 s⁻¹ | 445-1: humanized anti-OX40 antibody, human IgG1 wt, VH SEQ ID NO: 14, VL SEQ ID NO: 16 (antibody, V domains shown, human IgG1 constant regions; 445-1 VH pro; 445-1 VK pro) VH: QVQLVQSGAEVKKPGSSVKVSCKASGYKFTSYIIHWVRQAPGQGLEWMGYINPYNDGTRYNQKFQGRVTLTSDKSTSTAYMELSSLRSEDTAVYYCARGYYGSSYAMDYWGQGTTVTVSS VL: DIQMTQSPSSLSASVGDRVTITCSASQGISNYLNWYQQKPGKAIKLLIYDTSTLYSGVPSRFSGSGSGTDYTLTISSLQPEDFATYYCQQYSKLPYTFGGGTKVEIK | – | – | – | – | – | – | –
7.5e+07 M⁻¹ | 7.1e+07 M⁻¹ | 276000 M⁻¹ s⁻¹ | 0.0039 s⁻¹ | 7.8e+07 M⁻¹ | 206000 M⁻¹ s⁻¹ | 0.00264 s⁻¹ | 445-2: humanized anti-OX40 antibody, VH SEQ ID NO: 20, VL SEQ ID NO: 22 (antibody, V domains shown, 445-2 VH pro; 445-2 VK pro) VH: QVQLVQSGAEVKKPGSSVKVSCKASGYKFTSYIIHWVRQAPGQGLEWMGYINPYNEGTRYAQKFQGRVTLTADKSTSTAYMELSSLRSEDTAVYYCARGYYGSSYAMDYWGQGTTVTVSS VL: DIQMTQSPSSLSASVGDRVTITCSASQGISNYLNWYQQKPGKAIKLLIYDASTLYSGVPSRFSGSGSGTDFTLTISSLQPEDFATYYCQQYSKLPYTFGGGTKVEIK | – | – | – | – | – | – | –
– | – | – | – | – | – | – | OX86: rat anti-mouse OX40 antibody (WO2016/057667) engineered with mouse IgG2a constant regions; VH SEQ ID NO: 32, VL SEQ ID NO: 33 (antibody, V domains shown, mouse IgG2a constant regions) VH: QVQLKESGPGLVQPSQTLSLTCTVSGFSLTGYNLHWVRQPPGKGLEWMGRMRYDGDTYYNSVLKSRLSISRDTSKNQVFLKMNSLQTDDTAIYYCTRDGRGDSFDYWGQGVMVTVSS VL: DIVMTQGALPNPVPSGESASITCRSSQSLVYKDGQTYLNWFLQRPGQSPQLLTYWMSTRASGVSDRFSGSGSGTYFTLKISRVRAEDAGVYYCQQVREYPFTFGSGTKLEIK | 53.4 ± 28.7 mm^3 | 80% | 93% | does not block the interaction between OX40 and OX40 ligand | 210.5 ± 43.9 mm^3 | 40% | 79%
1.41e+08 M⁻¹ | 1.22e+08 M⁻¹ | 174000 M⁻¹ s⁻¹ | 0.00143 s⁻¹ | 1.59e+08 M⁻¹ | 265000 M⁻¹ s⁻¹ | 0.00167 s⁻¹ | ch445: Mu445 variable domains fused to human IgG1wt/kappa constant regions (antibody, V domains shown) VH: EVQLQQSGPELVKPGASVKMSCKASGYKFTSYIIHWVKQKPGQGLEWIGYINPYNDGTRYNEKFKGKATLTSDKSSSTAYMEYSSLTSEDSAVYYCARGYYGSSYAMDYWGQGTSVTVSS VL: DIQMTQTTSSLSASLGDRVTISCSASQGISNYLNWYQQKPDGTIKLLIYDTSTLYSGVPSRFSGSGSGTDYFLTISNLEPEDIATYYCQQYSKLPYTFGGGTKLEKK | – | – | – | – | – | – | –

Source: US20230011916A1, “METHODS OF CANCER TREATMENT USING ANTI-OX40 ANTIBODIES IN COMBINATION WITH PI3 KINASE DELTA INHIBITORS” (BEIGENE, LTD., priority 2019, published 2023)
